Assay results from patent publication US20240148916A1, “BIVALENT FIBROBLAST ACTIVATION PROTEIN LIGANDS FOR TARGETED DELIVERY APPLICATIONS” (priority 2021, published 2024).
*1 amine or outer side, *2 acyl side, *3 side chain or, on linkers, in order; H or OH if unused. Where a SMILES comes first, the peptide text is derived from it. The star is where a group is joined. Fluorescein(5-Mal) = O=C1OC2(c3ccc(O)cc3Oc3cc(O)ccc32)c2ccc(N3C(=O)CC(*)C3=O)cc21; X1 = N#C[C@@H]1CC(F)(F)CN1C(=O)CNC(=O)c1ccnc2c(N*)cccc12; Suc = O=C(CCC(=O)[*:2])[*:1]

Assays:
hFAP [1] = target: T1, hFAP (Homo sapiens, UniProt Q12884); experiment: Gel filtration co-elution experiment on hFAP; assay type: binding; details: PD-10 column, hFAP 2 μM
T1 sequence (Q12884 1-760): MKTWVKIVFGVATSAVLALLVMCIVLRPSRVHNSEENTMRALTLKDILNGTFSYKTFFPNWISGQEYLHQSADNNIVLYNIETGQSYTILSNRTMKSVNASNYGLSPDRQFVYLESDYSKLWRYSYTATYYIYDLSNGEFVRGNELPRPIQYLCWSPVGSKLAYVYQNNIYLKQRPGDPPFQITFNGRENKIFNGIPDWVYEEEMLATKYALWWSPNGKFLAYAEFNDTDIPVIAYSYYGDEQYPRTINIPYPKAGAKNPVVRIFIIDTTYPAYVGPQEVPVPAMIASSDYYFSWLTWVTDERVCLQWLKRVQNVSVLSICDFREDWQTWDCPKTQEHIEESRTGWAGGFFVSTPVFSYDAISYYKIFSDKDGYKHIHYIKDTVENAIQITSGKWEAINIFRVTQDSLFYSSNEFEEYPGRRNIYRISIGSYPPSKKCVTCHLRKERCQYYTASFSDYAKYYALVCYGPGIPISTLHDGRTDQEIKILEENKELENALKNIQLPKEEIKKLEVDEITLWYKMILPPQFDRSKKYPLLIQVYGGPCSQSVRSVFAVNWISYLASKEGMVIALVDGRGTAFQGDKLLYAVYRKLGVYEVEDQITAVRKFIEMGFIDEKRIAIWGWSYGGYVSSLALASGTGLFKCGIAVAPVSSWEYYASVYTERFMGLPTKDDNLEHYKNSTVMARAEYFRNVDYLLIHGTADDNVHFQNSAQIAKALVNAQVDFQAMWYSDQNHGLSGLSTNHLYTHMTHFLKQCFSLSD
Method: The final solution was loaded on the column and flushed with running buffer. Fractions of the flow-through (200 μL) were collected in test tubes and the radioactivity measured with a Packard Cobra γ-counter. […] The final solution was loaded on the column and flushed with running buffer. Fractions of the flow-through (200 μL) were collected in test tubes and the radioactivity measured with a Packard Cobra γ-counter.

in vivo = experiment: in vivo; parameters: species or system mice; details: mouse; for tissue to tissue ratio at 1 h / tissue to tissue ratio at 4 h / tissue to tissue ratio at 17 h / tissue to tissue ratio at 24 h: female, athymic BALB/C nu/nu, iv, 250 nmol/kg, total radioactivity
Method: Upon thawing, HT-1080.hFAP positive cells and HT-1080.wt cells were kept in culture in DMEM medium supplemented with fetal bovine serum (10%, FBS) and Antibiotic-Antimycotic (1%, AA) at 37° C. and 5% CO2. For passaging, cells were detached using Trypsin-EDTA 0.05% when reaching 90% confluence and re-seeded at a dilution of 1:4. Cells were grown to 80% confluence and detached with Trypsin-EDTA 0.05%. Cells were re-suspended in cold HBSS medium to a final concentration of 5×10^7 cells/mL. Aliquots of 5×10^6 cells (100 μL of suspension) were injected subcutaneously in the flank of female athymic BALB/C nu/nu mice (6-8 weeks of age). HT-1080.hFAP tumour cells were xenografted in the right flank and HT-1080.wt tumour cells were xenografted in the left flank as described above and allowed to grow to an average volume of 1.2±0.2 mL. […] Mice were sacrificed 1 h, 4 h, 17 h and 24 h after the injection by CO2 asphyxiation and organs extracted, weighted and radioactivity measured with a Packard Cobra γ-counter. Values are expressed as % ID/g±SD (Figure C). Food and water were given ad libitum during that period.

hFAP [2] = target: T1, hFAP; experiment: ELISA against immobilized hFAP; assay type: binding; details: biotinylated hFAP immobilized on StreptaWell
Method: Recombinant human FAP (1 μM, 5 mL) was biotinylated with Biotin-LC-NHS (100 eq.) by incubation at room temperature under gentle agitation in 50 mM HEPES, 100 mM NaCl buffer (pH=7.4). After 2 hours biotinylated hFAP was purified via PD-10 column and dialyzed overnight in HEPES buffer. The following day a StreptaWell™ (transparent 96-well) was incubated with biotinylated hFAP (100 nM, 100 μL/well) for 1 hour at room temperature and washed with PBS (3×, 200 μL/well). The protein was blocked by adding 4% Milk in PBS (200 μL/well, 30 min at RT) and then washed with PBS (3×, 200 μL/well). Immobilized hFAP was incubated for 30 minutes in the dark with serial dilutions of ESV6-Asp-Lys-Asp-Cys-Fluorescein and Bi-ESV6-Asp-Lys-Asp-Cys-Fluorescein (17), then washed with PBS (3×, 200 μL/well). A solution of rabbit αFITC antibody (1 μg/mL, Bio-Rad 4510-7804) in 2% Milk-PBS was added to each well (100 μL/well) and incubated for additional 30 minutes in the dark. The resulting complex was washed with PBS (3×, 200 μL/well) and incubated for additional 30 minutes of protein A-HRP (1 μg/mL in 2% Milk-PBS, 100 μL/well). Each well was washed with PBS 0.1% Tween (3×, 200 μL/well) and with PBS (3×, 200 μL/well). The substrate (TMB—3,3′,5,5′-Tetramethylbenzidine) was added (100 μL/well) and developed in the dark for 2 minutes. […] The absorbance was measured at 450 nm (ref 620-650 nm) with a TECAN spark

[3] = Tumour-to-organ ratios: HT-1080.hFAP
[4] = Tumour-to-organ ratios: Intestine

Compound	Complex formation with hFAP (co-elution) (hFAP [1])	tissue to tissue ratio at 1 h (in vivo; Tumour-to-organ ratios: Blood)	tissue to tissue ratio at 4 h (in vivo; Tumour-to-organ ratios: Blood)	tissue to tissue ratio at 17 h (in vivo; Tumour-to-organ ratios: Blood)	tissue to tissue ratio at 24 h (in vivo; Tumour-to-organ ratios: Blood)	tissue to tissue ratio at 1 h (in vivo; [3])	tissue to tissue ratio at 4 h (in vivo; [3])	tissue to tissue ratio at 17 h (in vivo; [3])	tissue to tissue ratio at 24 h (in vivo; [3])	tissue to tissue ratio at 1 h (in vivo; Tumour-to-organ ratios: Heart)	tissue to tissue ratio at 4 h (in vivo; Tumour-to-organ ratios: Heart)	tissue to tissue ratio at 17 h (in vivo; Tumour-to-organ ratios: Heart)	tissue to tissue ratio at 24 h (in vivo; Tumour-to-organ ratios: Heart)	tissue to tissue ratio at 1 h (in vivo; [4])	tissue to tissue ratio at 4 h (in vivo; [4])	tissue to tissue ratio at 17 h (in vivo; [4])	tissue to tissue ratio at 24 h (in vivo; [4])	tissue to tissue ratio at 1 h (in vivo; Tumour-to-organ ratios: Kidney)	tissue to tissue ratio at 4 h (in vivo; Tumour-to-organ ratios: Kidney)	tissue to tissue ratio at 17 h (in vivo; Tumour-to-organ ratios: Kidney)	further results
N#C[C@@H]1CC(F)(F)CN1C(=O)CNC(=O)c1ccnc2c(NC(=O)CCC(=O)NCCNC(=O)CCC(C(=O)O)N3CCN(CC(=O)O)CCN(CC(=O)O)CCN(CC(=O)O)CC3)cccc12 (single isomer, unassigned) [^177Lu-ESV6-DOTAGA, metal not drawn]	form a stable complex	43.1 ± 17.2	113 ± 49.8	236 ± 190	855 ± 368	34.9 ± 2.79	26.8 ± 6.42	32.6 ± 17.4	13.3 ± 5.95	135 ± 19.8	208 ± 113	354 ± 231	169 ± 172	41 ± 41.8	39.8 ± 11.4	163 ± 94.9	77 ± 58.6	9.16 ± 0.88	8.25 ± 1.45	5.72 ± 2.04	tissue to tissue ratio at 24 h (in vivo; Tumour-to-organ ratios: Kidney): 11.9 ± 16; tissue to tissue ratio at 1 h (in vivo; Tumour-to-organ ratios: Liver): 5.89 ± 0.82; tissue to tissue ratio at 4 h (in vivo; Tumour-to-organ ratios: Liver): 21.6 ± 2.99; tissue to tissue ratio at 17 h (in vivo; Tumour-to-organ ratios: Liver): 40.3 ± 13.3; tissue to tissue ratio at 24 h (in vivo; Tumour-to-organ ratios: Liver): 30.4 ± 6.7; tissue to tissue ratio at 1 h (in vivo; Tumour-to-organ ratios: Lung): 37.9 ± 2.59; tissue to tissue ratio at 4 h (in vivo; Tumour-to-organ ratios: Lung): 90.3 ± 29.3; tissue to tissue ratio at 17 h (in vivo; Tumour-to-organ ratios: Lung): 150 ± 88.5; tissue to tissue ratio at 24 h (in vivo; Tumour-to-organ ratios: Lung): 140 ± 83; tissue to tissue ratio at 1 h (in vivo; Tumour-to-organ ratios: Spleen): 109 ± 8.98; tissue to tissue ratio at 4 h (in vivo; Tumour-to-organ ratios: Spleen): 169 ± 67.8; tissue to tissue ratio at 17 h (in vivo; Tumour-to-organ ratios: Spleen): 200 ± 45.7; tissue to tissue ratio at 24 h (in vivo; Tumour-to-organ ratios: Spleen): 103 ± 66.7; tissue to tissue ratio at 1 h (in vivo; Tumour-to-organ ratios: Tail): 31.2 ± 8.39; tissue to tissue ratio at 4 h (in vivo; Tumour-to-organ ratios: Tail): 10.4 ± 7.6; tissue to tissue ratio at 17 h (in vivo; Tumour-to-organ ratios: Tail): 4.74 ± 5.11; tissue to tissue ratio at 24 h (in vivo; Tumour-to-organ ratios: Tail): 8.77 ± 2.3
N#C[C@@H]1CC(F)(F)CN1C(=O)CNC(=O)c1ccnc2c(NC(=O)CCC(=O)NCCCC[C@H](NC(=O)CCC(=O)Nc3cccc4c(C(=O)NCC(=O)N5CC(F)(F)C[C@H]5C#N)ccnc34)C(=O)NCCNC(=O)CCC(C(=O)O)N3CCN(CC(=O)O)CCN(CC(=O)O)CCN(CC(=O)O)CC3)cccc12 (stereo partly shown) [^177Lu-Bi-ESV6-DOTAGA, metal not drawn]	form a stable complex	32.8 ± 8.97	62.8 ± 11.2	95.4 ± 19.1	178 ± 57.6	23 ± 8.09	25 ± 1.27	27.2 ± 11.3	29.7 ± 13.8	52.2 ± 10.8	125 ± 17.1	148 ± 12.9	201 ± 59.5	59.6 ± 6.48	82.4 ± 31.2	111 ± 32.1	104 ± 60.6	7.19 ± 2.29	8.61 ± 0.84	8.4 ± 1.31	tissue to tissue ratio at 24 h (in vivo; Tumour-to-organ ratios: Kidney): 9.9 ± 2.38; tissue to tissue ratio at 1 h (in vivo; Tumour-to-organ ratios: Liver): 18.8 ± 5.31; tissue to tissue ratio at 4 h (in vivo; Tumour-to-organ ratios: Liver): 29.9 ± 4.12; tissue to tissue ratio at 17 h (in vivo; Tumour-to-organ ratios: Liver): 27.9 ± 2.25; tissue to tissue ratio at 24 h (in vivo; Tumour-to-organ ratios: Liver): 30.6 ± 8; tissue to tissue ratio at 1 h (in vivo; Tumour-to-organ ratios: Lung): 19.5 ± 4.09; tissue to tissue ratio at 4 h (in vivo; Tumour-to-organ ratios: Lung): 65.5 ± 10.5; tissue to tissue ratio at 17 h (in vivo; Tumour-to-organ ratios: Lung): 124 ± 74.7; tissue to tissue ratio at 24 h (in vivo; Tumour-to-organ ratios: Lung): 98.7 ± 18.9; tissue to tissue ratio at 1 h (in vivo; Tumour-to-organ ratios: Spleen): 42.1 ± 17.7; tissue to tissue ratio at 4 h (in vivo; Tumour-to-organ ratios: Spleen): 73.8 ± 10.3; tissue to tissue ratio at 17 h (in vivo; Tumour-to-organ ratios: Spleen): 68.2 ± 11.7; tissue to tissue ratio at 24 h (in vivo; Tumour-to-organ ratios: Spleen): 93.6 ± 64.5; tissue to tissue ratio at 1 h (in vivo; Tumour-to-organ ratios: Tail): 10.4 ± 1.72; tissue to tissue ratio at 4 h (in vivo; Tumour-to-organ ratios: Tail): 9.68 ± 4.14; tissue to tissue ratio at 17 h (in vivo; Tumour-to-organ ratios: Tail): 14 ± 8.08; tissue to tissue ratio at 24 h (in vivo; Tumour-to-organ ratios: Tail): 15.5 ± 7.98; Kidney uptake (in vivo): transient and becomes negligible 24 hours after injection
N#C[C@@H]1CC(F)(F)CN1C(=O)CNC(=O)c1ccnc2c(NC(=O)CCC(=O)N[C@@H](CC(=O)O)C(=O)N[C@@H](CCCCN)C(=O)N[C@@H](CC(=O)O)C(=O)N[C@@H](CSC3CC(=O)N(c4ccc5c(c4)C(=O)OC54c5ccc(O)cc5Oc5cc(O)ccc54)C3=O)C(=O)O)cccc12 (stereo partly drawn) [ESV6-Asp-Lys-Asp-Cys-Fluorescein] ({X1-Suc}-DKDC(Fluorescein(5-Mal))-OH)																					Kd (hFAP [2]): 32.3 nM
